Measurements from paper PMC4769881 (Molecular cell, 2016).

Target: the molecule itself
Experiment: AUC

B1: NBB182 (human MLKL N-terminal helix bundle and whole brace, to residue 182), tagless purified protein (domain or fragment, UniProt Q8NB16 1-182, looked up)
chain: MENLKHIITLGQVIHKRCEEMKYCKKQCRRLGHRVLGLIKPLEMLQDQGKRSVPSEKLTTAMNRFKAALEEANGEIEKFSNRSNICRFLTASQDKILFKDVNRKLSDVWKELSLLLQVEQRMPVSPISQGASWAQEDQQDADEDRRAFQMLRRDNEKIEASLRRLEINMKEIKETLRQYLPP
- stoichiometry N: 2
